Measured values published in patent US20210054097A1 (Novo Nordisk, published 2021).
Each block holds one binder with its values, some of them ahead of it. Ends that are not written are not given here.

Tests used:
[1] = target: T1, FX activation peptide 12-mer QATSSSGEAPDS (human); assay: peptide ELISA
T1 peptide: QATSSSGEAPDS-biotin
In short: (§1)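 Nanobodies (FLAG-tagged) or IgG antibodies, 2 μg/mL, incubated 1 h on C-terminally biotinylated peptide captured via streptavidin, washing buffer pH 8.60 containing CaCl₂ and Tween 20. Read-out: HRP-conjugated secondary antibody with TMB colour development.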

[2] = target: T2, FX activation peptide 12-mer TSSSGEAPDSIT (human); assay: peptide ELISA
T2 peptide: TSSSGEAPDSIT-biotin
In short: as §1

[3] = target: T3, FX activation peptide 12-mer SSGEAPDSITWK (human); assay: peptide ELISA
T3 peptide: SSGEAPDSITWK-biotin
In short: as §1

[4] = target: T4, FX activation peptide 12-mer GEAPDSITWKPY (human); assay: peptide ELISA
T4 peptide: GEAPDSITWKPY-biotin
In short: as §1

[5] = target: T5, FX activation peptide 12-mer EAPDSITWKPYD (human); assay: peptide ELISA
T5 peptide: EAPDSITWKPYD-biotin
In short: as §1

[6] = target: T6, FX activation peptide 12-mer APDSITWKPYDA (human); assay: peptide ELISA
T6 peptide: APDSITWKPYDA-biotin
In short: as §1

[7] = target: T7, FX activation peptide 12-mer PDSITWKPYDAA (human); assay: peptide ELISA
T7 peptide: PDSITWKPYDAA-biotin
In short: as §1

[8] = target: T8, FX activation peptide 12-mer SITWKPYDAADL (human); assay: peptide ELISA
T8 peptide: SITWKPYDAADL-biotin
In short: as §1

[9] = target: T9, FX activation peptide 12-mer ITWKPYDAADLD (human); assay: peptide ELISA
T9 peptide: ITWKPYDAADLD-biotin
In short: as §1

[10] = target: T10, FX activation peptide 12-mer TWKPYDAADLDP (human); assay: peptide ELISA
T10 peptide: TWKPYDAADLDP-biotin
In short: as §1

[11] = target: T11, FX activation peptide 12-mer KPYDAADLDPTE (human); assay: peptide ELISA
T11 peptide: KPYDAADLDPTE-biotin
In short: as §1

[12] = target: T12, FX activation peptide 12-mer PYDAADLDPTEN (human); assay: peptide ELISA
T12 peptide: PYDAADLDPTEN-biotin
In short: as §1

[13] = target: T13, FX activation peptide 12-mer DAADLDPTENPF (human); assay: peptide ELISA
T13 peptide: DAADLDPTENPF-biotin
In short: as §1

[14] = target: T14, FX activation peptide 12-mer ADLDPTENPFDL (human); assay: peptide ELISA
T14 peptide: ADLDPTENPFDL-biotin
In short: as §1

[15] = target: T15, FX activation peptide 12-mer DLDPTENPFDLL (human); assay: peptide ELISA
T15 peptide: DLDPTENPFDLL-biotin
In short: as §1

[16] = target: T16, FX activation peptide 12-mer LDPTENPFDLLD (human); assay: peptide ELISA
T16 peptide: LDPTENPFDLLD-biotin
In short: as §1

[17] = target: T17, FX activation peptide 12-mer LLDFNQTQPERG (human); assay: peptide ELISA
T17 peptide: LLDFNQTQPERG-biotin
In short: as §1

[18] = target: T18, FX activation peptide 12-mer LDFNQTQPERGD (human); assay: peptide ELISA
T18 peptide: LDFNQTQPERGD-biotin
In short: as §1

[19] = target: T19, FX activation peptide 12-mer QTQPERGDNNLT (human); assay: peptide ELISA
T19 peptide: QTQPERGDNNLT-biotin
In short: as §1

[20] = target: T20, FX activation peptide 12-mer TQPERGDNNLTR (human); assay: peptide ELISA
T20 peptide: TQPERGDNNLTR-biotin
In short: as §1

[21] = target: T21, human plasma-derived Factor X zymogen (human, UniProt P00742 41-179; P00742 183-488); assay: SPR steady state, Nb captured by anti-His mAb, FX injected
T21 construct: Plasma-derived, bought (Haematologic Technologies); also called FX; human FX
T21 sequence (P00742 41-179, chain 1 of 2): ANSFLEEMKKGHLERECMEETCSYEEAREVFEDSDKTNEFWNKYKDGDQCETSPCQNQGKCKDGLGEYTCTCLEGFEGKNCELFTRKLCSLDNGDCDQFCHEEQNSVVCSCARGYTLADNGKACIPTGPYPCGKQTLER
T21 sequence (P00742 183-488, chain 2 of 2): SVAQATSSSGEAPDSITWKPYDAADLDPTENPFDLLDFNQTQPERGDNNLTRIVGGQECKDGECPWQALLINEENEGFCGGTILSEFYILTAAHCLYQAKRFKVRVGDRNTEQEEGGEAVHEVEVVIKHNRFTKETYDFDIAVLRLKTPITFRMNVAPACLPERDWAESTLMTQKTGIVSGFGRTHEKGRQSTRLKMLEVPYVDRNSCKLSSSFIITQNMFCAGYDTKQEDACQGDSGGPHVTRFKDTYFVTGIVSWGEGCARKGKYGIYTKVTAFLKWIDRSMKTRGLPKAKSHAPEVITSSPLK
Procedure: Binding of purified anti-FX Nanobodies (Nb) to human plasma-derived FX (Haematologic Technologies Inc, USA) was probed by Surface Plasmon Resonance (SPR) (Biacore T200). Briefly, anti-His mAb (MAB050 from R&D systems) was immobilised on a CM4 sensor chip using standard amine coupling chemistry. Anti-FX Nanobodies (10 nM), according to Table 3, was injected at a flow rate of 10 μL/min for 1 minute. Subsequently 4096, 1024, 256, 64, 16, 4, and 0 nM of FX were injected at a flow rate of 30 μL/min for 4 minutes to allow for binding to anti-FX Nb followed by a 5 minutes running buffer (10 mM HEPES, 150 mM NaCl, 5 mM CaCl₂, 0.05% (v/v) Surfactant P20, 1 mg/mL bovine serum albumin, pH 7.4) injection allowing dissociation from anti-FX Nanobody®. The running buffer was also for dilution of anti-FX Nb and FX samples. Regeneration of the chip was achieved using a regeneration buffer consisting of 3M MgCl₂, 30 seconds contact time, and a 30 μL/min flow rate. The binding data were collected at 25° C. and were analysed according to a 1:1 model using BiaEvaluation 4.1 supplied by the manufacturer (Biacore AB, Uppsala, Sweden).
Therefore, the reported KD values are determined based on steady state analysis. The strongest binder identified is Nb702C12, while the others Nanobodies® tested binds FX with a slightly higher KD and lower Rₘₐₓ.

[22] = target: T22, FX activation peptide 12-mer DPTENPFDLLDF (human); assay: peptide ELISA
T22 peptide: DPTENPFDLLDF-biotin
In short: as §1

[23] = target: T23, FX activation peptide 12-mer TENPFDLLDFNQ (human); assay: peptide ELISA
T23 peptide: TENPFDLLDFNQ-biotin
In short: as §1

[24] = target: T24, FX activation peptide 12-mer ENPFDLLDFNQT (human); assay: peptide ELISA
T24 peptide: ENPFDLLDFNQT-biotin
In short: as §1

ELISA signal relative to background [1]: 0.94
ELISA signal relative to background [2]: 0.87
ELISA signal relative to background [3]: 0.89
ELISA signal relative to background [4]: 0.9
ELISA signal relative to background [5]: 0.89
ELISA signal relative to background [6]: 0.96
ELISA signal relative to background [7]: 0.92
ELISA signal relative to background [8]: 0.94
ELISA signal relative to background [9]: 1.03
ELISA signal relative to background [10]: 1
ELISA signal relative to background [11]: 0.9
ELISA signal relative to background [12]: 0.82
ELISA signal relative to background [13]: 0.85
ELISA signal relative to background [14]: 0.87
ELISA signal relative to background [15]: 0.88
ELISA signal relative to background [16]: 0.94
ELISA signal relative to background [17]: 1.03
ELISA signal relative to background [18]: 0.93
ELISA signal relative to background [20]: 0.97
Kd [21]: 960 nM
B1: Nb 701C06 (VHH)
VHH: EVQLVESGGGVVQPGGSLRLSCAASGRTFSTYAMGWFRQAPGKEREFVAAISRRGGRTYYADSVKGRFTISRDNSKNTVYLQMNSLRPEDTALYYCAADATARDGLLDYWGQGTLVTVSS
notes: monovalent Nanobody; not shown: C-terminal FLAG3 and HIS6 tag
ELISA signal relative to background [19]: 0.93

ELISA signal relative to background [1]: 0.82
binding result [1]: no binding (tested: 2 µg/mL)
ELISA signal relative to background [2]: 0.76
binding result [2]: no binding (tested: 2 µg/mL)
ELISA signal relative to background [3]: 0.71
binding result [3]: no binding (tested: 2 µg/mL)
ELISA signal relative to background [4]: 0.94
binding result [4]: no binding (tested: 2 µg/mL)
ELISA signal relative to background [5]: 0.76
binding result [5]: no binding (tested: 2 µg/mL)
ELISA signal relative to background [6]: 0.74
binding result [6]: no binding (tested: 2 µg/mL)
ELISA signal relative to background [7]: 0.79
binding result [7]: no binding (tested: 2 µg/mL)
ELISA signal relative to background [8]: 0.71
binding result [8]: no binding (tested: 2 µg/mL)
ELISA signal relative to background [9]: 0.74
binding result [9]: no binding (tested: 2 µg/mL)
ELISA signal relative to background [10]: 0.74
binding result [10]: no binding (tested: 2 µg/mL)
ELISA signal relative to background [11]: 0.82
binding result [11]: no binding (tested: 2 µg/mL)
ELISA signal relative to background [12]: 0.79
binding result [12]: no binding (tested: 2 µg/mL)
ELISA signal relative to background [13]: 0.88
binding result [13]: no binding (tested: 2 µg/mL)
ELISA signal relative to background [14]: 0.71
binding result [14]: no binding (tested: 2 µg/mL)
ELISA signal relative to background [15]: 0.79
binding result [15]: no binding (tested: 2 µg/mL)
ELISA signal relative to background [16]: 0.91
binding result [16]: no binding (tested: 2 µg/mL)
ELISA signal relative to background [22]: 0.88
binding result [22]: no binding (tested: 2 µg/mL)
ELISA signal relative to background [23]: 1.09
binding result [23]: no binding (tested: 2 µg/mL)
ELISA signal relative to background [24]: 0.82
binding result [24]: no binding (tested: 2 µg/mL)
ELISA signal relative to background [17]: 0.79
binding result [17]: no binding (tested: 2 µg/mL)
ELISA signal relative to background [18]: 0.74
binding result [18]: no binding (tested: 2 µg/mL)
ELISA signal relative to background [20]: 0.85
binding result [20]: no binding (tested: 2 µg/mL)
B2: Nb 501A02 (VHH)
VHH: EVQLVESGGGLVQPGGSLRLSCAASGFTFSNYEMSWVRQAPGKGLEWVSDIGSGGGVSTYYADSVKGRFTISRDNAKNTLYLQMNSLKPEDTAMYYCARGWTYGSDGMDYWGKGTLVTVSS
notes: monovalent control Nanobody; also called control Nanobody; not shown: C-terminal FLAG3 and HIS6 tag
ELISA signal relative to background [19]: 0.76
binding result [19]: no binding (tested: 2 µg/mL)
